Results from paper PMC5397175.
pKd: −log10 of the molar value.

Columns and labels:
[1] = biological target: T1, SLM2 (T-STAR) STAR domain (UniProt O75525); assay: fluorescence polarization; conditions: FP buffer, salt, pH and temperature not given in the material; SD from three independent experiments
T1 sequence: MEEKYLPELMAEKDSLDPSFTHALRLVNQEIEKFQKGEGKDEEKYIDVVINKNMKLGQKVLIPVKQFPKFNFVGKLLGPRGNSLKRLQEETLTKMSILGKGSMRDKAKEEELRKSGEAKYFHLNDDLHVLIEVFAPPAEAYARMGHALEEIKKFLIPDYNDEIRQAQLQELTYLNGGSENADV

Sam68 STAR domain = Sam68 STAR domain (UniProt Q07666); assay: fluorescence polarization; conditions: FP buffer, salt, pH and temperature not given in the material; SD from three independent experiments
Chain of Sam68 STAR domain (Q07666 97-283): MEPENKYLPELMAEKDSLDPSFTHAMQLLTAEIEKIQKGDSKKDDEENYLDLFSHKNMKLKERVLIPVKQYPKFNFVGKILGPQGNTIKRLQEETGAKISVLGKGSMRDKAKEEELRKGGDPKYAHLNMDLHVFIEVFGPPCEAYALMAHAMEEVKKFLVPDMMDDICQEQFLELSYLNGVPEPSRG

Sequence	pKd [1]	pKd (Sam68 STAR domain)
CCCACAGUUUAAAAUUUGAUAAAAUUU [Stxbp5l 1]	4.62	4.81
CCCUUACAUUUAAAAGAUGAUUUAAAAA [Stxbp5l 2]	4.74	4.86
